Laboratory results from the supplement of paper PMC12764529.
± gives the half width of the 95% confidence interval.

assay: folding stability dG unfold (combined trypsin and chymotrypsin); higher = more stable
In short: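 Only designs with AlphaFold2 dimer inter-PAE above 15 were retained; each was a mini-protein under 80 residues with no cysteine, in a PA-tagged cDNA display construct. After digestion with trypsin and chymotrypsin and sequencing, K50 was inferred by Bayesian fitting of counts, and unfolding free energy was derived per protease or combined against a sequence-predicted unfolded-state K50 and a shared folded-state K50.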

In order of rising “folding stability dG unfold” value:
1. SPSRPTLVTTYTFDPSGVPTATTKEITPEEVEELEKKGWKKLSEDPEKGLITLEKKLPTSPQKIEVTILPSA [r9_5_JUSTAS]  0.0748 ± 0.29 kcal/mol
2. SAGGGMLEVTREPSPDGVTRYVVTVPADRTVTVTRPDGTTTTTAAPDADAVITYTVPPGTPVAVSLTPSAGG [r13_82_JUSTAS]  0.207 ± 0.092 kcal/mol
3. SAGKVTVERDPSTNVVNVTVEVERERDVPPGAPVTETIIIPARVKFDEDGKLVEPISLDDILAAIRAAGSAG [r5_239_TrMRF]  0.629 ± 0.21 kcal/mol
4. SAGGSAGGSASYIPVTYSFFFPDKPYVERVEAEYELGPDGTPRILSAKVEVFPVDFSPDELSAGGSAGGSAG [r3_138_TrMRF]  0.663 ± 0.068 kcal/mol
5. SAGGSAMRMERIKLPDGKDITIMRHPNEPRQYQLFFPGGRSISVNFPSPEEAIDHALEWIKNGKPFSAGGSA [r15_38_TrROS]  0.78 ± 0.097 kcal/mol
6. SAGGMKVTTKPLPSDSEVVDIPGGVTMKIDPKTGVGTITLPDGKTLKMTITKDPNKNTTTITITPESSAGGS [r8_186_JUSTAS]  0.998 ± 0.22 kcal/mol
7. SAGGSAGGSAGIKIEWEPNPNGSWRMKIEIPNPNGNPKKIEVWANPNGKIREDEAKEILNSAGGSAGGSAGG [r11_759_TrROS]  1.02 ± 0.39 kcal/mol
8. SAVVLKEPGPVTTVVTTDPATGVTTTVTTDPSAGTTTVTTTDPASAAVTTTTYTTLPDGTPVPTTTTTPASA [r9_1073_JUSTAS]  1.05 ± 0.038 kcal/mol
9. SAGGWITPELIEEIAKTIAEENPENGKEVPIEVVIPFPNSVIKIEIEFDPSNGKIEIEDIKVIPPNDLSAGG [r13_37_TrROS]  1.16 ± 0.28 kcal/mol
10. SAGGSAGGSAGKEIIKNIPKGVKVLKIEPLPGKSGTYVKIEVEFPDPNGVKHRLTFIAPESAGGSAGGSAGG [r17_140_TrMRF]  1.16 ± 0.23 kcal/mol
11. SAGGSAGGSAGGKWIMVDSPEDIKEFAEDQGYKIKVDNVHPFPGDKNHYMVWIEIEPPGSAGGSAGGSAGGS [r10_126_TrROS]  1.18 ± 0.14 kcal/mol
12. SAGSKEFPFESEFEFEGYRVKVEVKVRVEFDENGKPTKNFKPEIKIEIKPLPPKPVITAEEALKLDPEKSAG [r14_442_TrMRF]  1.47 ± 0.3 kcal/mol
13. SASPALELAKEIAEKIEPLFPDISPVEVTVTPRGSTALGTIKFKRPDGKELVAKMIVSAGGDPVEIILLSAG [r14_719_JUSTAS]  1.51 ± 0.21 kcal/mol
14. SAKKENSVPVTIEIELEFDSIEKAKKAIEKLAAEIEKETGAKIEIKVEIEEKENNYIVKVELTIYLPKESAG [r14_626_TrMRF]  1.64 ± 0.077 kcal/mol
15. SAGMTVKVKVEVKTKYFDKNGKLVKEEKKTVEVEVEVKIVIELKPEDLEKAKELAEKLGIEITEEELKSAGG [r19_315_TrROS_Hall]  1.74 ± 0.56 kcal/mol
16. SAGGDWMLVIEIEIEGQPTPDGQIKVEISIEIELVRPPPPPITPWDRMAEEARDKNPNIPPDDPEAMTSAGG [r13_136_TrROS]  1.93 ± 0.2 kcal/mol
17. SAKTKTIEIEVKIKLIEIDPKTGKKTEKEFTAKATITYDEENNVVTIKIEFKDNGKTITITLPPGAKIKSAG [r14_587_TrROS_Hall]  2.26 ± 0.27 kcal/mol
18. SAGGKVEVELEDGKLRVKVFDKNGKLVEEVEVELKPVTIVIPGLSEEELQELKEKFPGAKITILEGQKSAGG [r13_235_TrROS_Hall]  2.39 ± 0.11 kcal/mol
19. SAGGSAGGSSGTVTLRLRFRVVDLDPATGEASEHEFELTLTVPIELPAAAPPATPTYGLTLPGSAGGSAGGS [r12_140_TrMRF]  2.39 ± 0.16 kcal/mol
20. SAGKKTIIIKIPPNMTVEELKKALKNLKPNEKVTITVNGKKYTITVKDGKIKITFPENVKNMILIIEVKSAG [r5_373_TrROS_Hall]  2.4 ± 0.36 kcal/mol
21. SMVVPVLIEKPYTSPEELEEFKKEAEELVKKLAEETGYPIKVLETKYTTDPNTNVVSLTLVVEIVSPELNSA [r9_105_JUSTAS]  2.45 ± 0.17 kcal/mol
22. SMKPGDKLLIRIRLPPVKVEREYFDKDGKLVKKETKEVKEVELVIELSPEELEKLRELLKELGFEVEILPSA [r9_167_TrROS_Hall]  2.5 ± 0.16 kcal/mol
23. SAGGGPPSSMVKKTYTVTGTDPDALAAAVRAAIAAAHPDVEITEVTVSRDPSSDRYTVTVDVLSSVASAGGS [r8_120_JUSTAS]  2.51 ± 0.051 kcal/mol
24. SAGGSAGGSAGGLEIELPNARIRIEELEGEPRRIRVRVEFFPPDGGRLSAEAEFDILPDLSAGGSAGGSAGG [r17_184_TrMRF]  2.57 ± 0.092 kcal/mol
25. SAGGSAGGSAGTIVITQSPDGTWRAYYEDGTAEEFDSIDDLKKALEEHYPDAKTVIFKPASAGGSAGGSAGG [r11_806_TrMRF]  3.15 ± 0.17 kcal/mol
26. ARELPVEEIREAVREFLRKHGFRVVSEEVVELPDGSVLVFVEAEPEDKSTRYRLVITRPVDGSVRLVIEPVS [r1_460_TrMRF]  3.283 ± 0.028 kcal/mol
27. SAGGSAGGSAMLRIKIYYKKNGEEYEIEVEGSLEEALKEAAKKLGLSEDEIKKIEIEELPESAGGSAGGSAG [r3_79_TrROS_Hall]  3.41 ± 0.2 kcal/mol
28. SAGGSAGGSAGGSKPNNFKNIPKPVFKFKITTTEWKKNKDGTWTPVSTSTAEVTVWSNTSAGGSAGGSAGGS [r4_288_TrMRF]  3.88 ± 0.21 kcal/mol
29. SAGKMYLIVIKVDGKEYVIVIPEEEMSEEEIRKLISEELGISEEEVEIVEIVPVEPGESVEEALKKALESAG [r5_900_TrROS_Hall]  3.94 ± 0.15 kcal/mol
30. SAGGSAGGLEIAKELGFEKIEIEEVKENRVVLKLKDKNGKEYKIEFEFDPETGEIKILKIEPLPSAGGSAGG [r6_526_TrMRF]  4.12 ± 0.13 kcal/mol
31. SAGGSAGGPLYRVLILLKKPNGEPLLLPLVAEDPEKALELAERLRKEYEEKGYELVAVEIYEFPSAGGSAGG [r6_869_TrMRF]  5.22 ± 0.22 kcal/mol
32. SAMKIIIKLPKNVKPIKAEELEKIPGIKVVKIEIYKGEDGVYYLLIEIEESIPPEKLKELEEKIREIAGSAG [r14_421_TrMRF]  5.81 ± 0.41 kcal/mol
